From US7919091B2, “Lipolysis stimulated receptor (LSR) specific antibodies” (Serono Genetics Institute S.A., priority 1997, dated 2011)

Experiments:
[1] = Long-term treatment with leptin on ob/ob mice: weight and postprandial lipemic response; format: in vivo
Method: (§1) The ob/ob obese mice received a daily injection of either leptin, or of an equivalent volume of sterile PBS, for 30 days. The injected doses are 50 μg/animal from day 0 to day 4, 100 μg/animal from day 5 to day 17, and 150 μg/animal from day 18 to day 30. Several parameters indicated below are measured: • the weight (FIG. 29 A): the change in weight is measured for 6 animals, over the duration of the treatment; • the postprandial lipemic response (FIG. 29 B): it is measured according to the protocol detailed in Example 5 on three animals in each group, on day 29; • the apparent number of LSR receptors (FIG. 29 C): it is measured according to the protocol detailed in Example 4 on three animals in each group, on day 30; • the quantity of LSR mRNA ([…]): it is estimated by Northern blotting as indicated in the protocol of Example 2.

[2] = Postprandial lipemic response in mice after a high-fat meal; format: in vivo; settings: 50 μg leptin i.v. with test meal; ob/ob, db/db and control mice
Method: Control, ob/ob and db/db mice, starved since the day before, are force-fed with a meal which is very high in fat [60% fat (37% saturated, 27% monounsaturated and 36% polyunsaturated fatty acids), 20% protein and 20% carbohydrate] providing 56 kcal of energy/kg of the weight of the animal. Immediately after the meal (time=0 hour), the mice are injected intravenously with 200 μl of physiological saline solution. At various times, 20 μl of blood are collected via the caudal vein in tubes containing 90 μg of disodium EDTA, and after separating the plasma by centrifugation, the plasma concentration of triglyceridemia is determined with the aid of an enzymatic assay kit. Each point on the curves presented corresponds to the mean with standard deviation obtained for 3 measurements per animal and for 3 different animals.
The procedure is the same as above, except that immediately after the meal (time=0 hour), the mice are injected intravenously with either 200 μl of physiological saline solution, or 200 μl of the same solution containing 50 μg of murine recombinant leptin.
ob/ob mice, starved since the day before, are force-fed with a meal identical to that described above. […] Blood is collected between 2 and 3 hours after the meal and the plasma concentration of triglycerides (TG) is measured. […]

[3] = molecular target: T1, LSR (Homo sapiens, UniProt Q86X29); test: Effect of leptin on the LSR activity of human fibroblasts HF; format: cell-based; settings: incubation with increasing leptin, 50 μg/ml 125I-LDL, 500 μM oleate
T1 construct: GM00486A, GM007001B, GM00488C; host or cells: human skin fibroblasts, normal or HF (familial hypercholesterolemia, LDL-receptor deficient)
T1 sequence (Q86X29 1-649) 1: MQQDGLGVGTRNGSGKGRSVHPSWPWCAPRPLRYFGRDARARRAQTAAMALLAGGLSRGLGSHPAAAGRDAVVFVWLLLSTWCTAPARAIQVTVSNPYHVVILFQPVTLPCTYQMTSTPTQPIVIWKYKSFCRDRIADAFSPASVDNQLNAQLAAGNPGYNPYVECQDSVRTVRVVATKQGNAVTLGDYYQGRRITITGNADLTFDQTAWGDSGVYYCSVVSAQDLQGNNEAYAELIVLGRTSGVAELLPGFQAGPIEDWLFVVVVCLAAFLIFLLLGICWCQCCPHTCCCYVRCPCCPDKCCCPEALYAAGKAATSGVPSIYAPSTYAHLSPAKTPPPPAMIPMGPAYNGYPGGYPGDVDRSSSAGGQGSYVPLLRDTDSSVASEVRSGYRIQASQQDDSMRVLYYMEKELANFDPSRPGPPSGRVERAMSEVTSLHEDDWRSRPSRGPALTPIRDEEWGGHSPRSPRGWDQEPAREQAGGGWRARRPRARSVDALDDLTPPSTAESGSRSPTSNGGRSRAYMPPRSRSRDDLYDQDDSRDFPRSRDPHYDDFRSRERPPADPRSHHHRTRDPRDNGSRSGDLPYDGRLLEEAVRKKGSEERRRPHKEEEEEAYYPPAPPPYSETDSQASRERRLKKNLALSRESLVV
T1 sequence (Q86X29 1-649) 2: T1 sequence (Q86X29 1-649) 1
Method: The fibroblasts HF are incubated for 30 minutes at 37° C. with increasing concentrations of leptin, and then for 2 hours at 37° C. with 50 μg/ml of ^125I-LDL, in the presence of 500 μM oleate. The binding, internalization and degradation of the LDLs are measured as indicated in Example 1.

[4] = Clearance of 125I-leptin in mice; format: in vivo
Method: The female control, ob/ob, or db/db mice (6-8 weeks), on an empty stomach, are anaesthetized and receive via the saphenous vein an injection of 80 ng of murine recombinant ^125I-leptin or of ^125I-β2-microglobulin (Sigma, labelled by the Iodobeads method, like leptin). Five minutes later, the animals are infused with a physiological saline solution (15 ml, at 4° C.). The tissues are collected and counted for their radioactivity (Gamma counter). In some cases, an anti-LSR antibody or a control protein are injected 30 minutes after injection of ^125I-leptin. It is important to note that the labelling of leptin with ^125I has no effect on its biological activity.

[5] = system: LSR receptors; test: Long-term treatment with leptin on ob/ob mice: LSR receptor number and LSR mRNA; format: in vivo
Method: as §1

[6] = system: LSR receptors; design: species or system mice; settings: mouse
Method: The apparent number of LSR receptors on plasma membranes is measured as previously described (Mann et al., 1995) by estimating the quantity of LDL bound to a plasma membrane preparation. The plasma membranes (100 μg) are incubated with 1 mM oleate; they are then washed three times as indicated above, and then incubated for 1 hour at 37° C. with 40 μg/ml of ^125I-LDL. The quantity of ^125I-LDL bound to the plasma membranes is then determined by counting. The mean is established on 3 measurements per animal for 3 different animals in each of the groups.

B1: leptin: mouse recombinant leptin with hexahistidine end, expressed in E. coli (protein, UniProt P41160 22-167, looked up)
Leptin: VPIQKVQDDTKTLIKTIVTRINDISHTQSVSAKQRVTGLDFIPGLHPILSLSKMDQTLAVYQQVLTSLPSQNVLQIANDLENLRDLLHLLAFSKSCSLPQTSGLQKPESLDGVLEASLYSTEVVALSRLQGSLQDILQQLDVSPEC
modifications: hexahistidine tag
notes: mouse recombinant leptin with hexahistidine end, expressed in E. coli
For B1, the weight ([1]; daily leptin injection over 30 days) was “very significant loss of weight”, the postprandial lipemic response ([1]; day 29 of leptin treatment) was “clear reduction” and the “postprandial lipemic response (plasma triglycerides)” value [2] was “reduce”. For the same molecule, the “LSR activity of human fibroblasts HF” value [3] was “increased”, the “renal capture of leptin” value ([4]; between control, ob/ob and db/db lines, 5 minutes after injection) was “no difference” and the “quantity of leptin selectively captured by the liver” value ([4]; obese (ob/ob, db/db) mice compared with control mice, 5 minutes after injection) was “reduced”. For the same molecule, the speed of clearance ([4]; radiolabelled recombinant leptin, obese and control mice) was “rapid speed of clearance”, the “injected dose found in liver and kidney” value ([4]; radiolabelled recombinant leptin, obese and control mice, after 10 minutes) was 50% and the “apparent number of LSR receptors at the surface of the cells” value ([5]; day 30 of leptin treatment) was “increase”. The “quantity of mRNA encoding the subunits of the LSR receptor” value ([5]; leptin 30 days, Northern blotting of liver RNA) was “increase” and the “apparent number of LSR receptors expressed at the surface of the hepatocytes in vivo” value [6] was “increase”.
